Data: PMC6779417

Target: 70S ribosome (Escherichia coli MRE600), translating on an mRNA hairpin (Escherichia coli MRE600)
Experiment: single-molecule fluorescence with optical tweezers

Cy3-labeled EF-G (S73C EF-G labeled with Cy3-monomaleimide) (from UniProt P0A6M8 1-704) (enzyme)
EF-G residence time on the ribosome before hairpin unwinding (tau unwinding): 0.25 s
